Experimental data from US20200399341A1 (Hoffmann-La Roche, published 2020).

Target: T1, Recombinant human VEGF R2 (R&D Systems, #357-KD) (human, UniProt P35968 20-764)
T1 construct: Immobilized by amine coupling on a CM5 chip (approx. 9,500 RU)
Test: SPR (BIAcore T200): VEGF-A-121 (10 nM, pre-incubated with COMP-anti-VEGF-Fab) injected over amine-coupled VEGF R2
Method: Binding was investigated by surface plasmon resonance using a BIAcore T200 instrument (GE Healthcare). All experiments were performed at 25° C. using HBS-P (10 mM HEPES, 140 mM NaCl, 0.05% PS20, pH 7.4) as running and dilution buffer. Recombinant human VEGF R2 (R&D Systems, #357-KD) was immobilized on a Series S CM5 Sensor Chip (GE Healthcare) using standard amine coupling chemistry resulting a surface density of approx. 9,500 RU. […] Subsequently the surface was regenerated by injecting 10 mM Glycine solution (pH 2.0) for 60 sec., followed by 5 mM NaOH for 60 sec. at a flow rate of 5 μl/min. Bulk refractive index differences were corrected by subtracting the response obtained from a mock surface. Blank injections were subtracted (double referencing). The derived binding signals (resonance units RU) were plotted against the antibody concentrations to calculate IC₅₀ values.

T1 sequence (P35968 20-764 limits assumed): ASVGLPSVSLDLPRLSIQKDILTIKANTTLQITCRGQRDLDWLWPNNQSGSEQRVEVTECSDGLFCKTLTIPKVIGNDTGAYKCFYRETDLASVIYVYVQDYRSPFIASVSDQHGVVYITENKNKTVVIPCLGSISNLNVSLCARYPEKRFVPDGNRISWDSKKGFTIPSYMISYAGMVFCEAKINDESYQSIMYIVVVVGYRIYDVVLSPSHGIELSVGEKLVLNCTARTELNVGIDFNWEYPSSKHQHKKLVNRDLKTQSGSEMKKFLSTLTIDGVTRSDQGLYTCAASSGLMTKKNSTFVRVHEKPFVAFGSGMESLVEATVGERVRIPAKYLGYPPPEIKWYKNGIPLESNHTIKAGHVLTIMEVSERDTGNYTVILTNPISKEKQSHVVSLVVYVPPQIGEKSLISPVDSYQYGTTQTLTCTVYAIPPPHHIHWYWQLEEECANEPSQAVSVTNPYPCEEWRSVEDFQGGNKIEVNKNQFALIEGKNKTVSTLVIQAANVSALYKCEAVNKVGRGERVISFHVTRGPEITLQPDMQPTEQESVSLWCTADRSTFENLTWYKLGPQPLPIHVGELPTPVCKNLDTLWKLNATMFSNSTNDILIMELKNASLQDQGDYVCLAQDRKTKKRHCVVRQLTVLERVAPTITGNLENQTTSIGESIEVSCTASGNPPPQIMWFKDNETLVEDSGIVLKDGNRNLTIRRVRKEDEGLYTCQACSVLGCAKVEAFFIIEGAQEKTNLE

B1: VEGF-A-121 (ligand, UniProt P15692-9 27-147, looked up)
chain: APMAEGGGQNHHEVVKFMDVYQRSYCHPIETLVDIFQEYPDEIEYIFKPSCVPLMRCGGCCNDEGLECVPTEESNITMQIMRIKPHQGQHIGEMSFLQHNKCECRPKKDRARQEKCDKPRR
notes: Used at 10 nM in solution, pre-incubated with the antibody molecules
binding result: binds
